For 1 molecule, Kd results are on record in publication PMC12520519 (2025).

The test has as its target receptor binding domain (RBD) of the SARS-CoV-2 spike protein, WT (SARS-CoV-2, UniProt P0DTC2). In words: FACS. A general note: In flow cytometry, cells or beads pass a laser one at a time.

B1: Delta-6 scFv (scFv, V domains shown)
VH: EVQLLESGGGLVQPGGTLRLSCAASGFIVSSNYMSWVRQAPGKGLEWVSLVYPGGSTYYADSVKGRFTVSRDNSKNTLYLQMNSLRAEDMAVYYCARDLPSGVDAVDAFDIWGQGTMVTVSS
VL: DIRVTQSPSSLSASVGDRVSITCRASQIISGYLNWYQQKPGSAPQLLIYASSSLQSGVPPRFSGSRSGTEFTLTISSLQPEDFATYYCQQTYSIPFTFGPGTKVDIK
The term Kd denotes the equilibrium constant for the complex coming apart. The low end stands for tighter binding, the high end for weaker binding. Regarding B1, the dissociation constant (Kd) turned out to be 6.3 nM.
